Assay results reported in article PMC11635287, “Molecular interactions of the chaperone CcmS and carboxysome shell protein CcmK1 that mediate β-carboxysome assembly” (Plant Physiology, 2024).

B2: CcmK1-His (His-tagged CcmK1 from Nostoc sp. PCC 7120) (natural protein, UniProt A0ACD6B949 1-114, looked up)
chain: MSIAVGMVETLGFPAVVEAADAMVKAARVTLVGYEKIGSGRVTVIVRGDVSEVQASVAAGVESVKRVNGGQVLSTHIIARPHENLEYVLPIRYTEDVEQFRENVNAIRPFGRRP
notes: CcmK1, carboxysome shell protein, Nostoc sp; GenBank BAB72824.1; synthesized gene in pET-22b(+); The His tag is named for the pull-down only; also called CcmK1 hexamer; source: E. coli BL21(DE3), purified (Ni2+-NTA, gel filtration)

Columns and labels:
[1] = target: CcmK1-ΔC12, His-tagged (C-terminus-truncated CcmK1 from Nostoc sp. PCC 7120) (Nostoc sp. PCC 7120); experiment: SEC; gel filtration chromatography of CcmK1 or CcmK1-ΔC12 alone (Supplementary Figs. S4 and S5)
[2] = target: CcmS-His (His-tagged CcmS from Nostoc sp. PCC 7120) (Nostoc sp. PCC 7120); experiment: MST; His-tagged CcmS labelled with dye as target at 0.25 μM; non-labelled ligand in 2-fold steps, 16 capillaries; Monolith NT.115, 25 °C, 60% excitation power
[3] = target: B2; experiment: SEC + native gel or EMSA; molecular mass of the CcmS/CcmK1 complex by gel filtration chromatography and Native-PAGE (Supplementary Figs. S3B and S5A); conditions: both partners purified
[4] = target: the molecule itself; experiment: crystal structure; CcmS mixed with CcmK1-C15 at a molar ratio of 1:10, space group P41212, 1.67 Å; 0.2 M lithium sulfate, 0.1 M Tris pH 8.5, 1.26 M ammonium sulfate, 18 °C
[5] = target: T1, CcmS-His (His-tagged CcmS from Nostoc sp. PCC 7120) (Nostoc sp. PCC 7120, UniProt A0ACD6B954 1-142, dye label on the His tag in the MST assays); experiment: MST
T1 chain: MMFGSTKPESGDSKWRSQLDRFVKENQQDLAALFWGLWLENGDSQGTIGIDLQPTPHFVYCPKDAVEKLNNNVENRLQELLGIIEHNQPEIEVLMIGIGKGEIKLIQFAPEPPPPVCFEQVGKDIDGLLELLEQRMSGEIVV

[6] = target: the molecule itself; experiment: SEC; gel filtration chromatography of CcmK1 or CcmK1-ΔC12 alone (Supplementary Figs. S4 and S5)
[7] = target: T2, CcmS-His (His-tagged CcmS from Nostoc sp. PCC 7120) (Nostoc sp. PCC 7120, UniProt A0ACD6B954 1-142, dye label on the His tag in the MST assays); experiment: MST; His-tagged CcmS labelled with dye as target at 0.25 μM; non-labelled ligand in 2-fold steps, 16 capillaries; Monolith NT.115, 25 °C, 60% excitation power; conditions: both partners purified
T2 construct: CcmS, Nostoc sp; ccmS encodes a protein of 142 amino acids; GenBank BAB73249.1; synthesized gene in pET-22b(+); also called CcmS dimer; source: E. coli BL21(DE3), purified (Ni2+-NTA, gel filtration)

Molecule: CcmK1-ΔC12, His-tagged (C-terminus-truncated CcmK1 from Nostoc sp. PCC 7120) (domain or fragment)
- stoichiometry N [1]: 6

Molecule: CcmK1-C12 (12-amino acid C-terminal peptide of CcmK1)
- Kd [2]: 41.5 µM

B1: CcmS from Nostoc sp. PCC 7120 (as used for crystallization, Native-PAGE and gel filtration; tag not told) (natural protein, UniProt A0ACD6B954 1-142, looked up)
chain: MMFGSTKPESGDSKWRSQLDRFVKENQQDLAALFWGLWLENGDSQGTIGIDLQPTPHFVYCPKDAVEKLNNNVENRLQELLGIIEHNQPEIEVLMIGIGKGEIKLIQFAPEPPPPVCFEQVGKDIDGLLELLEQRMSGEIVV
notes: CcmS, Nostoc sp; ccmS encodes a protein of 142 amino acids; GenBank BAB73249.1; crystal structures PDB 8ZLH (alone) and 8ZLZ (with CcmK1-C15); also called CcmS dimer; purified CcmS; source: E. coli BL21(DE3), purified (Ni2+-NTA or Strep-tag XT, gel filtration)
- stoichiometry N [3]: 2 CcmS dimers per CcmK1 hexamer
- stoichiometry N [4]: 2

Molecule: FRENVNAIRPFGARP [CcmK1-C15 R112A peptide]
- Kd [5]: 101 µM

Molecule: B2
- stoichiometry N [6]: 6
- Kd [7]: 34.5 µM
